In patent US20110177064A1, “Compositions and Methods for Treatment of Ovarian Cancer” (priority 2010, published 2011):
Values joined by “and” are separate entries in the source; they are usually repeats but may differ in a detail not shown here. Identical values can stand only once.

How the values were obtained:
[1] = test system: COLO 720E human ovarian carcinoma xenografts; test: Low-dose IMGN901 combination therapy of established subcutaneous COLO 720E xenografts; assay type: in vivo, mice; conditions: single agent IMGN901 11.4 mg/kg qw×3
Procedure: (§1) Mice were inoculated with human ovarian cancer cell lines and allowed to become established (average tumor size of about 100 mm^3) prior to treatment. Conjugate dosing is described based on DM1 concentration. Efficacy is reported as both the % of tumor growth for treated vs. control (% T/C) and log cell kill (LCK) determined from the tumor doubling time and the tumor growth delay due to the treatment.
The anti-tumor effect of reduced doses of IMGN901 and paclitaxel plus carboplatin was evaluated in established subcutaneous COLO 720E xenografts. When the tumors reached about 100 mm^3 in size (14 days after tumor cell inoculation), the mice were randomly divided into groups of 6 animals each based on tumor volume. Mice were treated with the single agent IMGN901 at a dose of 11.4 mg/kg (qw×3) or the chemotherapeutic combination paclitaxel/carboplatin at either a high-dose (paclitaxel 20 mg/kg, qw×3/carboplatin, 100 mg/kg ip, single injection) or a low-dose (paclitaxel 10 mg/kg, qw×3/carboplatin, 100 mg/kg ip, single injection).

[2] = test system: OVCAR-3 human ovarian carcinoma xenografts; test: Anti-tumor effect in established subcutaneous OVCAR-3 ovarian carcinoma xenografts; assay type: in vivo, SCID mice; parameters: key to activity (NCI standards): Percent T/C values less than or equal to 42% and/or LCK values of 0.5 or greater are considered active; percent T/C values less than 10% are considered highly active
Procedure: as §1
The anti-tumor effect of IMGN901 was evaluated in an established subcutaneous xenograft model of ovarian carcinoma. SCID mice were inoculated with OVCAR-3 ovarian carcinoma cells (1×10^7 cells/animal) injected subcutaneously into the right flank. When the tumors reached about 100 mm^3 in size (24 days after tumor cell inoculation), the mice were randomly divided into three groups (6 animals per group). Mice were treated with the single agent IMGN901 at 6.5 mg/kg and 13 mg/kg, respectively, administered intravenously once weekly for three weeks (day 24, 31, […]). A control group of animals received PBS administered intravenously at the same schedule. Tumor growth was monitored by measuring tumor size twice per week. Tumor size was calculated with the formula: length×width×height×½.

[3] = test system: COLO 720E human ovarian carcinoma xenografts; test: Dose-response anti-tumor activity in established subcutaneous COLO 720E xenografts; assay type: in vivo, SCID mice; parameters: key to activity (NCI standards): Percent T/C values less than or equal to 42% and/or LCK values of 0.5 or greater are considered active; percent T/C values less than 10% are considered highly active; conditions: for complete regressions (CR) / partial regressions (PR) / mice remaining tumor free at the end of the study: 6 mice; for mice remaining tumor free at the end of the study: 119 days
Procedure: as §1
The anti-tumor effect of IMGN901 was evaluated in an established subcutaneous xenograft model of ovarian carcinoma. SCID mice were inoculated with COLO 720E ovarian carcinoma cells (1×10^7 cells/animal) injected subcutaneously into the right flank. (The COLO 720E human ovarian adenocarcinoma cell line was obtained from the European Collection of Cell Cultures (ECACC, catalog no. 93072111).) When the tumors reached about 100 mm^3 in size (10 days after tumor cell inoculation), the mice were randomly divided into four groups (6 animals per group). Mice were treated with the single agent IMGN901 at 6, 12 and 24 mg/kg, respectively, administered intravenously once weekly for three weeks (day 10, 17 and 24). A control group of animals received PBS administered intravenously at the same schedule. Tumor growth was monitored by measuring tumor size twice per week. Tumor size was calculated with the formula: length×width×height×½.

[4] = test system: COLO 720E human ovarian carcinoma xenografts; test: Combination therapy of established subcutaneous COLO 720E xenografts; assay type: in vivo, Athymic nude mice; parameters: key to activity (NCI standards): Percent T/C values less than or equal to 42% and/or LCK values of 0.5 or greater are considered active; percent T/C values less than 10% are considered highly active
Source text: as §1
The anti-tumor effect of a combination of huN901-DM1 and paclitaxel plus carboplatin was evaluated in an established subcutaneous xenograft model of ovarian cancer. Athymic nude mice were inoculated with COLO 720E human ovarian carcinoma cells (1×10^7 cells/animal) injected subcutaneously into the right flank. When the tumors reached about 80 mm^3 in size (10 days after tumor cell inoculation), the mice were randomly divided into six groups (6 animals per group). Mice were treated with the single agent IMGN901 at a dose of 13 mg/kg once weekly for three weeks (day 10, 17 and 24 post tumor cell inoculation) administered intravenously. Two additional groups of mice were treated with the combination chemotherapy regimen paclitaxel/carboplatin at two dose levels: a high-dose group of paclitaxel (20 mg/kg iv, weekly for 3 weeks)/carboplatin (100 mg/kg ip, single injection) and a low-dose group of paclitaxel (10 mg/kg iv, weekly for 3 weeks)/carboplatin (100 mg/kg ip, single injection). Two additional groups were treated with the combination of IMGN901 and either high-dose or low-dose paclitaxel/carboplatin with the same doses and routes of administration as for individual treatments. Tumor growth was monitored by measuring tumor size twice per week. Tumor size was calculated with the formula: length×width×height×½.

[5] = IMGN901 13 mg/kg iv once weekly for three weeks
[6] = 24 mg/kg iv once weekly for three weeks
[7] = single-agent IMGN901 13 mg/kg iv once weekly for three weeks

B1: IMGN901 (conjugate, chains of the INN, looked up)
VH: QVQLVESGGGVVQPGRSLRLSCAASGFTFSSFGMHWVRQAPGKGLEWVAYISSGSFTIYYADSVKGRFTISRDNSKNTLYLQMNSLRAEDTAVYYCARMRKGYAMDYWGQGTLVTVSS
VL: DVVMTQSPLSLPVTLGQPASISCRSSQIIIHSDGNTYLEWFQQRPGQSPRRLIYKVSNRFSGVPDRFSGSGSGTDFTLKISRVEAEDVGVYYCFQGSHVPHTFGQGTKVEIK
modifications: mertansine (DM1) conjugate
- Response [1]: inactive
- T/C [1]: 62%
- CR ([1]; 11.4 mg/kg): no partial (PR) or complete regressions (CR) and 0/6
- PR ([1]; 11.4 mg/kg): no partial (PR) or complete regressions (CR) and 1/6
- activity (NCI standards) ([2]; IMGN901 6.5 mg/kg iv once weekly for three weeks): inactive
- activity (NCI standards) [2, 5]: active
- tumor growth inhibition (T/C) [2, 5]: 21%
- activity (NCI standards) ([3]; 6 mg/kg iv once weekly for three weeks): inactive
- activity (NCI standards) ([3]; 12 mg/kg iv weekly for 3 weeks): active
- mice exhibiting tumor regressions ([3]; 12 mg/kg iv weekly for 3 weeks): Four of 6
- tumor growth inhibition value (T/C) ([3]; 12 mg/kg iv weekly for 3 weeks): 18%
- complete regressions (CR) ([3]; 12 mg/kg iv weekly for 3 weeks): 2
- partial regressions (PR) ([3]; 12 mg/kg iv weekly for 3 weeks): 4
- mice remaining tumor free at the end of the study ([3]; 12 mg/kg iv weekly for 3 weeks): one
- activity (NCI standards) [3, 6]: highly active (percent T/C values less than 10% are considered highly active)
- mice exhibiting tumor regressions [3, 6]: six
- tumor growth inhibition value (T/C) [3, 6]: 0%
- complete regressions (CR) [3, 6]: 6
- partial regressions (PR) [3, 6]: 6
- mice remaining tumor free at the end of the study [3, 6]: four
- T/C [4, 7]: 32%
- activity (NCI standards) [4, 7]: active
- complete regression [4, 7]: one of six
- partial tumor regressions [4, 7]: Two of six
- tumor-free survivors ([4]; single-agent IMGN901 13 mg/kg, end of study day 123): no tumor-free survivors
